The text below walks through data of patent US6635429B1.

Assay [1] addresses bacterially-expressed hRAR-γ (human) (UniProt P13631). Put plainly: complementation gel retardation with bacterially-expressed hRAR-γ on β-RARE; cpm in the complex per µg of protein of the purification step.

B1: purified HeLa cell RBF (HAP-TSK) (receptor)
chain: MSWAARPPFLPQRHAAGQCGPVGVRKEMHCGVASRWRRRRPWLDPAAAAAAAVAGGEQQTPEPEPGEAGRDGMGDSGRDSRSPDSSSPNPLPQGVPPPSPPGPPLPPSTAPTLGGSGAPPPPPMPPPPLGSPFPVISSSMGSPGLPPPAPPGFSGPVSSPQINSTVSLPGGGSGPPEDVKPPVLGVRGLHCPPPPGGPGAGKRLCAICGDRSSGKHYGVYSCEGCKGFFKRTIRKDLTYSCRDNKDCTVDKRQRNRCQYCRYQKCLATGMKREAVQEERQRGKDKDGDGEGAGGAPEEMPVDRILEAELAVEQKSDQGVEGPGGTGGSGSSPNDPVTNICQAADKQLFTLVEWAKRIPHFSSLPLDDQVILLRAGWNELLIASFSHRSIDVRDGILLATGLHVHRNSAHSAGVGAIFDRVLTELVSKMRDMRMDKTELGCLRAIILFNPDAKGLSNPSEVEVLREKVYASLETYCKQKYPEQQGRFAKLLLRLPALRSIGLKCLEHLFFFKLIGDTPIDTFLMEMLEAPHQLA
The molecule B1 showed a Specific Activity (cpm/µg) in assay [1] of 7.75e+06 cpm/µg.

B2: mRXR-α (receptor)
chain: MDTKHFLPLDFSTQVNSSSLNSPTGRGSMAVPSLHPSLGPGIGSPLGSPGQLHSPISTLSSPINGMGPPFSVISSPMGPHSMSVPTTPTLGFGTGSPQLNSPMNPVSSTEDIKPPLGLNGVLKVPAHPSGNMASFTKHICAICGDRSSGKHYGVYSCEGCKGFFKRTVRKDLTYTCRDNKDCLIDKRQRNRCQYCRYQKCLAMGMKREAVQEERQRGKDRNENEVESTSSANEDMPVEKILEAELAVEPKTETYVEANMGLNPSSPNDPVTNICQAADKQLFTLVEWAKRIPHFSELPLDDQVILLRAGWNELLIASFSHRSIAVKDGILLATGLHVHRNSAHSAGVGAIFDRVLTELVSKMRDMQMDKTELGCLRAIVLFNPDSKGLSNPAEVEALREKVYASLEAYCKHKYPEQPGRFAKLLLRLPALRSIGLKCLEHLFFFKLIGDTPIDTFLMEMLEAPHQAT
The molecule B2 had an OMPdecase activity of the DR1-URA3 reporter in yeast with mRXR-α (mouse) of 30 fold.
